Results: IntAct's records for PubMed 31515488

B1: Histone-lysine N-methyltransferase SMYD1 (Homo sapiens), Q8NB12 (parent)
chain: MTIGRMENVEVFTAEGKGRGLKATKEFWAADIIFAERAYSAVVFDSLVNFVCHTCFKRQEKLHRCGQCKFAHYCDRTCQKDAWLNHKNECSAIKRYGKVPNENIRLAARIMWRVEREGTGLTEGCLVSVDDLQNHVEHFGEEEQKDLRVDVDTFLQYWPPQSQQFSMQYISHIFGVINCNGFTLSDQRGLQAVGVGIFPNLGLVNHDCWPNCTVIFNNGNHEAVKSMFHTQMRIELRALGKISEGEELTVSYIDFLNVSEERKRQLKKQYYFDCTCEHCQKKLKDDLFLGVKDNPKPSQEVVKEMIQFSKDTLEKIDKARSEGLYHEVVKLCRECLEKQEPVFADTNIYMLRMLSIVSEVLSYLQAFEEASFYARRMVDGYMKLYHPNNAQLGMAVMRAGLTNWHAGNIEVGHGMICKAYAILLVTHGPSHPITKDLEAMRVQTEMELRMFRQNEFMYYKMREAALNNQPMQVMAEPSNEPSPALFHKKQ
partner: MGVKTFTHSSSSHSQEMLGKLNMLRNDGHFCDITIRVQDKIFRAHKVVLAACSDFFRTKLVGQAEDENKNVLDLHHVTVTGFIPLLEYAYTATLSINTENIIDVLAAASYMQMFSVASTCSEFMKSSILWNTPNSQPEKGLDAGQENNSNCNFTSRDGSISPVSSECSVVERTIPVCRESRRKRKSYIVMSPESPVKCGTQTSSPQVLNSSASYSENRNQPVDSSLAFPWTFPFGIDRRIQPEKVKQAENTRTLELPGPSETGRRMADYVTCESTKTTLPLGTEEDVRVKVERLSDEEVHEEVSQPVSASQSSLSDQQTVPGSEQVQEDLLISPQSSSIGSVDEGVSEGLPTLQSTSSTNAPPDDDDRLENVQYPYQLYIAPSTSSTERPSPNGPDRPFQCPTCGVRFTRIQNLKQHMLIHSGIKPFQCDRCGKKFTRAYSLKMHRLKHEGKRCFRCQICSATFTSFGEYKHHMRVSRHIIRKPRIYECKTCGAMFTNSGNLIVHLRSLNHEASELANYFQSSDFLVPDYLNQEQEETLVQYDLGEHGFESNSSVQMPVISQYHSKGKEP
B2: Protein DDI1 homolog 1 (Homo sapiens), Q8WTU0 (parent)
chain: MLITVYCVRRDLSEVTFSLQVSPDFELRNFKVLCEAESRVPVEEIQIIHMERLLIEDHCSLGSYGLKDGDIVVLLQKDNVGPRAPGRAPNQPRVDFSGIAVPGTSSSRPQHPGQQQQRTPAAQRSQGLASGEKVAGLQGLGSPALIRSMLLSNPHDLSLLKERNPPLAEALLSGSLETFSQVLMEQQREKALREQERLRLYTADPLDREAQAKIEEEIRQQNIEENMNIAIEEAPESFGQVTMLYINCKVNGHPLKAFVDSGAQMTIMSQACAERCNIMRLVDRRWAGVAKGVGTQRIIGRVHLAQIQIEGDFLQCSFSILEDQPMDMLLGLDMLRRHQCSIDLKKNVLVIGTTGTQTYFLPEGELPLCSRMVSGQDESSDKEITHSVMDSGRKEH
partner: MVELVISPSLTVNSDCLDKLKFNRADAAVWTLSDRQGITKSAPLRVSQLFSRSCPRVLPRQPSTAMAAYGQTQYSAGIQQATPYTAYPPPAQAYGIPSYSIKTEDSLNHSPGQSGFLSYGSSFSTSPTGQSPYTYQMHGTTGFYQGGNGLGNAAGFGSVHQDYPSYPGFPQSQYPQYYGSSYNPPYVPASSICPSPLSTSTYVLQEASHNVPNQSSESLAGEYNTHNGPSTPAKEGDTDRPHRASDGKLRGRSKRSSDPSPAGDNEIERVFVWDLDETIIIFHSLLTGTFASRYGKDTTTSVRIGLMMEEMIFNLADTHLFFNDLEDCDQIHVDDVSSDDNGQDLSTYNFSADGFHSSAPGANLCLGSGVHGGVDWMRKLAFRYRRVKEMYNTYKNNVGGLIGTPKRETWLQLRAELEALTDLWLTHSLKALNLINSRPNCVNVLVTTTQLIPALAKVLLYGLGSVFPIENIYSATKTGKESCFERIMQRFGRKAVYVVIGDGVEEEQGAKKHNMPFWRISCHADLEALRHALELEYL
B3: Membrane protein FAM174A (Homo sapiens), Q8TBP5 (parent)
chain: MKASQCCCCLSHLLASVLLLLLLPELSGPLAVLLQAAEAAPGLGPPDPRPRTLPPLPPGPTPAQQPGRGLAEAAGPRGSEGGNGSNPVAGLETDDHGGKAGEGSVGGGLAVSPNPGDKPMTQRALTVLMVVSGAVLVYFVVRTVRMRRRNRKTRRYGVLDTNIENMELTPLEQDDEDDDNTLFDANHPRR
partner: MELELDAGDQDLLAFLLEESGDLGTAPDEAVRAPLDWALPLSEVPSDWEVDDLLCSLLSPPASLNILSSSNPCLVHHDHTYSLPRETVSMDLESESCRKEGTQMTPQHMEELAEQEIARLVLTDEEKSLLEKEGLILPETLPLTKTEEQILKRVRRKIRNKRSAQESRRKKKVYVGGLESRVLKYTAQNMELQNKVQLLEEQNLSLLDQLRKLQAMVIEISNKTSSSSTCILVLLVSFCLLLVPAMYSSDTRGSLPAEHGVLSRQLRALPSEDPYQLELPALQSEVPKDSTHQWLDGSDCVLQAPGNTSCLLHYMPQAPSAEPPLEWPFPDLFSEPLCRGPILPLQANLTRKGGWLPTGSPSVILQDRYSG

Variants of: B1
Details: with zbt44_human ZBTB44, Q8NCP5

Row | Variant | effect of a mutation on the interaction
1 | MTIGRMENVEVFTAEGKGRGLKATKEFWAADIIFAERAYSAVVFDSLVNFVCHTCFKRQEKLHRCGQCKFAHYCDRTCQKDAWLNHKNECSAIKRYGKVPNENIRLAARIMWRVEREGTGLTEGCLVSVDDLQNHVEHFGEEEQKDLRVDVDTFLQYWPPQSQQFSMQYISHIFGVINCNGFTLSDQRGLQAVGVGIFPNLGLVNHDCWPNCTVIFNNGNHEAVKSMFHTQMRIELRALGKISEGEELTVSYIDFLNVSEERKRQLKKQYYFDCTCEHCQKKLKDDLFLGVKDNPKPSQEVVKEMIQFSKDTLEKIDKARSEGLYHEVVKLCRECLEKQEPVFADTNIYMLRMLSIVSEVLSYLQAFEEASFYARRMVDGYMKLYHPNNAQLGMAVMRAGLTNWHAGNIEVGHGMICKAYAILLVTLGPSHPITKDLEAMRVQTEMELRMFRQNEFMYYKMREAALNNQPMQVMAEPSNEPSPALFHKKQ [H427L] | with no effect
2 | MTIGRMENVEVFTAEGKGRGLKATKEFWAADIIFAERAYSAVVFDSLVNFVCHTCFKRQEKLHRCGQCKFAHYCDRTCQKDAWLNHKNECSAIKRYGKVPNENIRLAARIMWRVEREGTGLTEGCLVSVDDLQNHVEHFGEEEQKDLRVDVDTFLQYWPPQSQQFSMQYISHIFGVINCNGFTLSDQRGLQAVGVGIFPNLGLVNHDCWPNCTVIFNNGNHEAVKSMFHTQMRIELRALGKISEGEELTVSYIDFLNVSEERKRQLKKQYYFDCTCEHCQKKLKDDLFLGVKDNPKPSQEVVKEMIQFSKDTLEKIDKARSEGLYHEVVKLCQECLEKQEPVFADTNIYMLRMLSIVSEVLSYLQAFEEASFYARRMVDGYMKLYHPNNAQLGMAVMRAGLTNWHAGNIEVGHGMICKAYAILLVTHGPSHPITKDLEAMRVQTEMELRMFRQNEFMYYKMREAALNNQPMQVMAEPSNEPSPALFHKKQ [R333Q] | with no effect

Variants of: B2
Details: with eya2_human EYA2, O00167

Row | Variant | effect of a mutation on the interaction
3 | MLITVYCVRRDLSEVTFSLQVSPDFELRNFKVLCEAESRVPVEEIQIIHMERLLIEDHCSLGAYGLKDGDIVVLLQKDNVGPRAPGRAPNQPRVDFSGIAVPGTSSSRPQHPGQQQQRTPAAQRSQGLASGEKVAGLQGLGSPALIRSMLLSNPHDLSLLKERNPPLAEALLSGSLETFSQVLMEQQREKALREQERLRLYTADPLDREAQAKIEEEIRQQNIEENMNIAIEEAPESFGQVTMLYINCKVNGHPLKAFVDSGAQMTIMSQACAERCNIMRLVDRRWAGVAKGVGTQRIIGRVHLAQIQIEGDFLQCSFSILEDQPMDMLLGLDMLRRHQCSIDLKKNVLVIGTTGTQTYFLPEGELPLCSRMVSGQDESSDKEITHSVMDSGRKEH [S63A] | with no effect
4 | MLITVYCVRRDLSEVTFSLQVSPDFELRNFKVLCEAESRVPVEEIQIIHMERLLIEDHCSLGSYGLKDGDIVVLLQKDNVGPRAPGCAPNQPRVDFSGIAVPGTSSSRPQHPGQQQQRTPAAQRSQGLASGEKVAGLQGLGSPALIRSMLLSNPHDLSLLKERNPPLAEALLSGSLETFSQVLMEQQREKALREQERLRLYTADPLDREAQAKIEEEIRQQNIEENMNIAIEEAPESFGQVTMLYINCKVNGHPLKAFVDSGAQMTIMSQACAERCNIMRLVDRRWAGVAKGVGTQRIIGRVHLAQIQIEGDFLQCSFSILEDQPMDMLLGLDMLRRHQCSIDLKKNVLVIGTTGTQTYFLPEGELPLCSRMVSGQDESSDKEITHSVMDSGRKEH [R87C] | with no effect
5 | MLITVYCVRRDLSEVTFSLQVSPDFELRNFKVLCEAESRVPVEEIQIIHMERLLIEDHCSLGSYGLKDGDIVVLLQKDNVGPRAPGRAPNQPRVDFSGIAVPGTSSSRPQHPGQQQQRTPAAQRSQGLASGEKVAGLQGLGSPALIRSMLLSNPHDLSLLKERNPPLAEALLSGSLETFSQVLMEQQREKALREQERLRLYTADPLDGEAQAKIEEEIRQQNIEENMNIAIEEAPESFGQVTMLYINCKVNGHPLKAFVDSGAQMTIMSQACAERCNIMRLVDRRWAGVAKGVGTQRIIGRVHLAQIQIEGDFLQCSFSILEDQPMDMLLGLDMLRRHQCSIDLKKNVLVIGTTGTQTYFLPEGELPLCSRMVSGQDESSDKEITHSVMDSGRKEH [R208G] | with no effect
6 | MLITVYCVRRDLSEVTFSLQVSPDFELRNFKVLCEAESRVPVEEIQIIHMERLLIEDHCSLGSYGLKDGDIVVLLQKDNVGPRAPGRAPNQPRVDFSGIAVPGTSSSRPQHPGQQQQRTPAAQRSQGLASGEKVASLQGLGSPALIRSMLLSNPHDLSLLKERNPPLAEALLSGSLETFSQVLMEQQREKALREQERLRLYTADPLDREAQAKIEEEIRQQNIEENMNIAIEEAPESFGQVTMLYINCKVNGHPLKAFVDSGAQMTIMSQACAERCNIMRLVDRRWAGVAKGVGTQRIIGRVHLAQIQIEGDFLQCSFSILEDQPMDMLLGLDMLRRHQCSIDLKKNVLVIGTTGTQTYFLPEGELPLCSRMVSGQDESSDKEITHSVMDSGRKEH [G136S] | with no effect

Variants of: B3
Details: with creb3_human CREB3, O43889

Row | Variant | effect of a mutation on the interaction
7 | MKASQCCCCLSHLLASVLLLLLLPELSGPLAVLLQAAEAAPGLGPPDPRPRTLPPLPPGPTPAQQPGRGLAEAAGPRGSEGGNGSNPVAGLETDGHGGKAGEGSVGGGLAVSPNPGDKPMTQRALTVLMVVSGAVLVYFVVRTVRMRRRNRKTRRYGVLDTNIENMELTPLEQDDEDDDNTLFDANHPRR | with no effect
